± gives the standard deviation of the averaged measurements.
Tested on: ATP
Assay: switch fluorescence ratio, 500 uM ATP over buffer (Cy3 cluster intensity, sum of 5 cycles each) (fold (ratio)); higher = stronger signal-on switching upon ATP binding; sequences stand for … in TCGTCGGCAGCGTCAGATGTGTATAAGAGACAGTTTTTTTTTTTTTTTTTTTTTTTTT…TC
Conditions: aptamer strand: ATP DNA aptamer (quencher-CACCTGGGGGAGTATTGCGGAGGAAGG + anchor), 100 nM annealed; ATP concentration: 500 uM
In short: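 Imaging in selection buffer was followed by imaging after 15 min with 500 uM ATP at 22 °C, for Cy3-labelled switching-strand clusters annealed to 100 nM quencher-labelled ATP aptamer on a modified Illumina MiSeq flow-cell. Five of these buffer/ATP cycles ran, separated by NaOH stripping and re-annealing. The fluorescence ratio per cluster is summed target-cycle over summed buffer-cycle Cy3 intensity, averaged per switch-domain sequence; clusters outside 100-1000 RFU were removed.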
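Also: ATP exposure 15 min at 22 °C before imaging.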

Row | Sequence | switch fluorescence ratio
1 | TAAGTTTGTT | 0.997 ± 0.011
2 | TAAGTTTTTA | 1.03 ± 0.023
3 | TAATAAAGTT | 1.02 ± 0.018
4 | TAATAACATG | 0.9691 ± 0.0038
5 | TAATAAGGTG | 1.13 ± 0.23
6 | TAATAATGGG | 1.02 ± 0.042
7 | TAATAATTGT | 1.018 ± 0.0078
8 | TAATAGGGAT | 0.98 ± 0.019
9 | TAATAGGGCA | 1.002 ± 0.007
10 | TAATAGGGCG | 1.01 ± 0.076
11 | TAATATAAAC | 1.002 ± 0.0078
12 | TAATATGGTT | 1.03 ± 0.055
13 | TAATATTGGG | 0.989 ± 0.029
14 | TAATCAGGTA | 1.1 ± 0.02
15 | TAATCAGTGC | 0.998 ± 0.068
16 | TAATCATTGG | 1.01 ± 0.065
17 | TAATCCTGTA | 0.9994 ± 0.003
18 | TAATCGAGGG | 0.9831 ± 0.0091
19 | TAATCTGGCG | 1.026 ± 0.0054
20 | TAATCTTAGG | 0.9838 ± 0.0079
21 | TAATCTTTTT | 1.01 ± 0.021
22 | TAATGAAGCG | 0.993 ± 0.018
23 | TAATGCAATT | 1.018 ± 0.0064
24 | TAATGCCTGC | 1 ± 0.093
25 | TAATGCGGTT | 1.016 ± 0.004
26 | TAATGCTGTT | 0.997 ± 0.049

Row | Sequence | switch fluorescence ratio
27 | TAATGGAAGG | 1 ± 0.024
28 | TAATGGAGGC | 1.05 ± 0.13
29 | TAATGGATGG | 0.966 ± 0.019
30 | TAATGGGGGA | 1.01 ± 0.016
31 | TAATGGGGGG | 0.989 ± 0.037
32 | TAATGTATGA | 0.972 ± 0.04
33 | TAATGTGTCG | 1.021 ± 0.0042
34 | TAATGTTTCG | 0.978 ± 0.013
35 | TAATGTTTTG | 1.01 ± 0.018
36 | TAATTAGAGG | 1.01 ± 0.027
37 | TAATTAGCGC | 1.03 ± 0.016
38 | TAATTAGCGG | 1.01 ± 0.018
39 | TAATTAGGGA | 0.986 ± 0.044
40 | TAATTCAATG | 0.997 ± 0.066
41 | TAATTGCTCG | 1.062 ± 0.0041
42 | TAATTGGTGT | 1.02 ± 0.043
43 | TAATTGTGTG | 1 ± 0.038
44 | TAATTTAAAA | 1.05 ± 0.12
45 | TAATTTATCG | 1.04 ± 0.038
46 | TAATTTATTT | 1.03 ± 0.029
47 | TAATTTCCGG | 0.994 ± 0.029
48 | TAATTTGAAA | 1.03 ± 0.07
49 | TAATTTGGTG | 1.043 ± 0.0083
50 | TAATTTGTTT | 1.03 ± 0.025
51 | TAATTTTCGT | 1.02 ± 0.03
52 | TAATTTTGCG | 1 ± 0.015

Row | Sequence | switch fluorescence ratio
53 | TAATTTTGGG | 0.999 ± 0.047
54 | TAATTTTTGG | 0.992 ± 0.023
55 | TAATTTTTTA | 0.976 ± 0.03
56 | TACAAAAAAT | 1.03 ± 0.047
57 | TACAAAAGGT | 1.07 ± 0.094
58 | TACAAGGGTG | 1.1 ± 0.03
59 | TACAAGTCGT | 0.98 ± 0.012
60 | TACACATTTT | 1.07 ± 0.026
61 | TACACCCTTC | 1.183 ± 0.011
62 | TACACTGGGT | 0.999 ± 0.022
63 | TACACTTGTA | 1.03 ± 0.057
64 | TACAGAATGA | 1.003 ± 0.0041
65 | TACAGACTGT | 1.04 ± 0.021
66 | TACAGAGGG | 0.966 ± 0.06
67 | TACAGCAGGG | 1.04 ± 0.012
68 | TACAGCAGTG | 1.02 ± 0.023
69 | TACAGCTTTT | 1.01 ± 0.031
70 | TACAGGGGTC | 1.06 ± 0.019
71 | TACAGGTATC | 0.9796 ± 0.0048
72 | TACAGGTTTC | 1 ± 0.023
73 | TACAGTCTGG | 1.007 ± 0.0066
74 | TACAGTGAGC | 1.026 ± 0.0019
75 | TACATCGTCC | 1.05 ± 0.024
76 | TACATGAGTA | 1.03 ± 0.023
77 | TACATGCTGC | 1.03 ± 0.022
78 | TACATGTCGT | 0.996 ± 0.018

Row | Sequence | switch fluorescence ratio
79 | TACATTATAG | 1.01 ± 0.036
80 | TACATTGTGC | 1.01 ± 0.015
81 | TACATTTAGG | 0.9964 ± 0.0092
82 | TACCAGCATT | 1.1 ± 0.051
83 | TACCAGGCGG | 1.04 ± 0.037
84 | TACCAGTGAT | 1 ± 0.018
85 | TACCATCTTG | 0.997 ± 0.037
86 | TACCATGAAT | 1.01 ± 0.045
87 | TACCATGGTA | 0.987 ± 0.035
88 | TACCCTTGCC | 1.22 ± 0.25
89 | TACCCTTGGG | 0.9937 ± 0.0072
90 | TACCCTTTTT | 1.01 ± 0.054
91 | TACCGAAGGG | 0.989 ± 0.028
92 | TACCGGGGGT | 1.63 ± 0.83
93 | TACCGTAAAC | 1.8 ± 0.7
94 | TACCGTGTCC | 1.11 ± 0.06
95 | TACCGTTTTT | 1.01 ± 0.045
96 | TACCTAGTGC | 1.035 ± 0.0016
97 | TACCTGCGAA | 2.07 ± 1.3
98 | TACGAGACGG | 1.095 ± 0.0059
99 | TACGAGCTGG | 0.995 ± 0.01
100 | TACGAGTTAA | 0.97 ± 0.015
101 | TACGAGTTTT | 0.996 ± 0.01
102 | TACGATATAC | 3.09 ± 0.34
103 | TACGATGCGG | 1.07 ± 0.038
104 | TACGATGTGC | 1.0053 ± 0.00075

Row | Sequence | switch fluorescence ratio
105 | TACGCAGAAT | 3.38 ± 3.2
106 | TACGCGGGGG | 1.019 ± 0.0098
107 | TACGCGGTTG | 1.07 ± 0.044
108 | TACGCGTGGG | 1.004 ± 0.0084
109 | TACGGAACGG | 1.07 ± 0.029
110 | TACGGAGATT | 1.01 ± 0.035
111 | TACGGATACT | 1.27 ± 0.026
112 | TACGGATTGT | 0.988 ± 0.027
113 | TACGGGAGGG | 1.07 ± 0.022
114 | TACGGGCGTC | 1 ± 0.028
115 | TACGGGGCGA | 1.07 ± 0.036
116 | TACGGGGGAC | 1.07 ± 0.047
117 | TACGGGGGTA | 1.02 ± 0.036
118 | TACGGGGGTG | 1.01 ± 0.042
119 | TACGGGGTCA | 0.971 ± 0.03
120 | TACGGTAGCC | 1.043 ± 0.0061
121 | TACGGTCCTG | 0.99156 ± 0.00092
122 | TACGTAACTC | 1.28 ± 0.028
123 | TACGTATGAA | 1.17 ± 0.014
124 | TACGTATTTA | 1.13 ± 0.0012
125 | TACGTATTTT | 1.023 ± 0.0035
126 | TACGTCACGA | 1.42 ± 0.19
127 | TACGTCCCGG | 1.08 ± 0.014
128 | TACGTCTTGG | 1.04 ± 0.033
129 | TACGTGCTTG | 0.989 ± 0.03
130 | TACGTGGGTG | 1.05 ± 0.02

Row | Sequence | switch fluorescence ratio
131 | TACGTGTAGC | 1.01 ± 0.011
132 | TACGTGTTTG | 1.01 ± 0.033
133 | TACTACTTAT | 1.04 ± 0.053
134 | TACTAGGCG | 1.014 ± 0.0083
135 | TACTAGTTGG | 0.997 ± 0.011
136 | TACTCATGGG | 1.01 ± 0.035
137 | TACTCGAGGG | 1.08 ± 0.031
138 | TACTCGGATT | 0.996 ± 0.015
139 | TACTCGGGAA | 3.05 ± 2
140 | TACTGACTTG | 0.989 ± 0.014
141 | TACTGGCCGG | 1.03 ± 0.029
142 | TACTGGGGTT | 0.981 ± 0.031
143 | TACTGGTGAC | 1.06 ± 0.012
144 | TACTGGTTGG | 1 ± 0.021
145 | TACTGTAGGG | 1.12 ± 0.029
146 | TACTGTGAGC | 1.016 ± 0.0076
147 | TACTGTGGGG | 1.009 ± 0.0094
148 | TACTTAGTTT | 1.01 ± 0.077
149 | TACTTATGGA | 0.984 ± 0.043
150 | TACTTCATTC | 1.037 ± 0.0095
151 | TACTTGAGTT | 1.05 ± 0.012
152 | TACTTGTGTT | 1.02 ± 0.046
153 | TACTTTGGGG | 0.989 ± 0.022

Reference: the supplement of paper PMC10126150
